Results published in WO2009147196A1.

Key:
EYFP-Rev (HIV-1) [1] = molecular target: EYFP-Rev (HIV-1) (UniProt P04618); assay: FRET Rev-multimerization assay, purified proteins mixed
EYFP-Rev (HIV-1) [2] = molecular target: EYFP-Rev (HIV-1) (UniProt P04618); assay: FRET Rev-multimerization assay, negative control ECFP + EYFP-Rev

Chain of EYFP-Rev (HIV-1) (P04618 whole entry): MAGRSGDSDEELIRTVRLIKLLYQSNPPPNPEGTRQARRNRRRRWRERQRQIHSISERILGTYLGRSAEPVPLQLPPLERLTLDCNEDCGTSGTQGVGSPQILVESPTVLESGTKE

Substance | FRET efficiency (EYFP-Rev (HIV-1) [1]) [%] | FRET efficiency (EYFP-Rev (HIV-1) [2]) [%]
ECFP-Rev (from UniProt P04618 1-116) | 20 to 35 | 
free ECFP |  | 1.6
